# According to patent US20230250160A1 (HOBER BIOTECH, published 2023):
# Read-outs that look alike come from different tables or passages of the source.
# T1: renin (human (produced in the Human Secretome …, UniProt P00797 24-406, limits assumed))
# T1 construct: also called bREN
# T1 sequence (looked up): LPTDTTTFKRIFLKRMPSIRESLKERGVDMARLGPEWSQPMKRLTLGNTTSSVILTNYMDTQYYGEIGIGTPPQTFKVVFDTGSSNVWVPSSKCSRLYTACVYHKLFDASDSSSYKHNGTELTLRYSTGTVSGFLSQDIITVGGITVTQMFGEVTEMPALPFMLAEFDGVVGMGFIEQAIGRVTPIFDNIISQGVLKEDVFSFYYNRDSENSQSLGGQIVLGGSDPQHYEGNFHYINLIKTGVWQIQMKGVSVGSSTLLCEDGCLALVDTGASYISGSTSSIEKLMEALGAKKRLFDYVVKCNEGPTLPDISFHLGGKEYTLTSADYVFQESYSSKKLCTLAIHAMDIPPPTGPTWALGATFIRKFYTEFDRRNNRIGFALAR
# T2: C-reactive protein (human (produced in the Human Secretome …, UniProt P02741 19-224))
# T2 construct: also called CRP; bCRP
# T2 sequence (looked up): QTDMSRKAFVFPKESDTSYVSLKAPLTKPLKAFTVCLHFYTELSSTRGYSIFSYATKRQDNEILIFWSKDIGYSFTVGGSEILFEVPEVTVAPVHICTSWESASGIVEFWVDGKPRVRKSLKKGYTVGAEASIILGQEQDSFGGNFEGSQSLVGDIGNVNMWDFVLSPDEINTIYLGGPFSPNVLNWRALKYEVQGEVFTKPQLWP
# What was measured:
# Human Serum Albumin [1] = biological target: T3, Human Serum Albumin (human, UniProt P02768 25-609); experiment: SPR Biacore T200, HSA on CM5 chip, ADAPT injected, 1:1 fit
# T3 construct: also called HSA
# T3 sequence (P02768 25-609 limits assumed): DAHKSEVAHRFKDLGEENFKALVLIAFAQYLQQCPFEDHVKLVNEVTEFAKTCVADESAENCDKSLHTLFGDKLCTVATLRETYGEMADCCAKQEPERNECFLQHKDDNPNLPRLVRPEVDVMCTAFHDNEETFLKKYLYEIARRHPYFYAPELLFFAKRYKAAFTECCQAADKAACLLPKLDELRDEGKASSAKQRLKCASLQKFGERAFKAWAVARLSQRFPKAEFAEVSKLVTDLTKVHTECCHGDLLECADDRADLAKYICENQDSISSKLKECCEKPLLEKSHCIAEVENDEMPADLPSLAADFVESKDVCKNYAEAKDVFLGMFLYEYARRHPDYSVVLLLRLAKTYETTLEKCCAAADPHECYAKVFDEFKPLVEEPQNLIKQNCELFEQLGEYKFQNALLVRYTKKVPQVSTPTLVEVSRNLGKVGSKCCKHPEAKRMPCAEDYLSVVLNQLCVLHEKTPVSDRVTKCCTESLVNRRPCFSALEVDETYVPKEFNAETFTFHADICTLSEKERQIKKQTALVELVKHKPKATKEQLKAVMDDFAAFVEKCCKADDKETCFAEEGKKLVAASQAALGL
# Experimental: (§1) Sensor-based binding analysis was performed using a Biacore T200 system (GE Healthcare, Stockholm, Sweden). All analyses were conducted using CM-5 sensor chips coated with the target antigen, another irrelevant antigen and HSA. One surface was left as reference. Binding analysis was performed in PBS-T at 25° C. The ADAPT variants were diluted in PBS-T to 500 nM, 250 nM, 125 nM, 62.5 nM and 31.25 nM. The samples were injected at a flow rate of 30 ul/min for 120 s followed by injection of PBS-T for 240 s to monitor the dissociation. Surfaces were regenerated with 10 mM HCl. Kinetic parameters were determined using the Biacore Insight Evaluation software, assuming a 1:1 binding.
# [2] = biological target: T4, Prostate Specific Antigen (human (produced in the Human Secretome …, UniProt P07288 18-261, limits assumed)); experiment: SPR Biacore T200, target on CM5 chip, ADAPT injected, 1:1 fit
# T4 construct: also called PSA; bPSA
# T4 sequence (P07288 18-261 limits assumed): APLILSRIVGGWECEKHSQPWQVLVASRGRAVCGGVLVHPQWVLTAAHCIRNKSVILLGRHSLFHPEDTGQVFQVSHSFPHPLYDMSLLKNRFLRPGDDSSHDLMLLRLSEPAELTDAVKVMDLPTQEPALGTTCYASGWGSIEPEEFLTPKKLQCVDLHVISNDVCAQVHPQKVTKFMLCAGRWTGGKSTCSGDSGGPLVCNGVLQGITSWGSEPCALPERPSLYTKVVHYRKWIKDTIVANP
# Experimental: as §1
# [3] = biological target: T4, Prostate Specific Antigen; experiment: as above; remark: listed apart in the source
# Experimental: as §1
# (§2) Variants with sufficient alpha helical structure as well as monomeric elution profiles on the SEC column were further analyzed for binding towards their target protein as well as to HSA. The binding towards the target antigen used in the selection was measured by a multi-cycle analysis using SPR, showing that several binders had affinities in the μM-pM range. […] After target binding had been established, the variants were also evaluated for their ability to simultaneously bind to HSA. This was done either through an SPR capture assay or an experiment where the ADAPT was pre-incubated with saturating conditions of HSA before the binding towards the target was analyzed. […] In total, thirteen of the characterized binders from the selections towards TNFα, PSA, ANG, MYDGF and Insulin could bind both HSA and its target antigen simultaneously. FIG. 5 contains sensorgrams for the thirteen variants in the capture assay.
# Human Serum Albumin [4] = biological target: T3, Human Serum Albumin; experiment: SPR Biacore T200, HSA on CM5 chip, ADAPT injected, 1:1 fit; remark: listed apart in the source
# Experimental: as §1
# [5] = biological target: T5, tumor necrosis factor alpha (human (produced in the Human Secretome …, UniProt P01375 77-233, limits assumed)); experiment: SPR Biacore T200, target on CM5 chip, ADAPT injected, 1:1 fit
# T5 construct: also called TNFα; bTNFα
# T5 sequence (P01375 77-233 limits assumed): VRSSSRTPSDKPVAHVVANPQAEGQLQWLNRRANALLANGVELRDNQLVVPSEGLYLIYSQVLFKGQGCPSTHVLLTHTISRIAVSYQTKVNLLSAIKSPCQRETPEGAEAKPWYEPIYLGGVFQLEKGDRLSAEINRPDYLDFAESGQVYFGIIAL
# Experimental: as §1
# [6] = biological target: T5, tumor necrosis factor alpha; experiment: as above; remark: listed apart in the source
# Experimental: as §1, §2
# [7] = biological target: T6, Human recombinant Insulin (human, UniProt P01308 25-54; P01308 90-110, limits assumed); experiment: as above
# T6 construct: also called bInsulin
# T6 sequence (P01308 25-54 limits assumed, chain 1 of 2): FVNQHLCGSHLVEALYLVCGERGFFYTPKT
# T6 sequence (P01308 90-110 limits assumed, chain 2 of 2): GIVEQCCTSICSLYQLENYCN
# Experimental: as §1
# [8] = biological target: T6, Human recombinant Insulin; experiment: as above; remark: listed apart in the source
# Experimental: as §1, §2
# renin [9] = biological target: T1, renin; experiment: as above
# Experimental: as §1
# renin [10] = biological target: T1, renin; experiment: as above; remark: listed apart in the source
# Experimental: as §1, §2
# C-reactive protein [11] = biological target: T2, C-reactive protein; experiment: as above
# Experimental: as §1
# C-reactive protein [12] = biological target: T2, C-reactive protein; experiment: as above; remark: listed apart in the source
# Experimental: as §1, §2
# angiogenin [13] = biological target: T7, angiogenin (human (produced in the Human Secretome …, UniProt P03950 25-147)); experiment: as above
# T7 construct: also called bANG
# T7 sequence (P03950 25-147 limits assumed): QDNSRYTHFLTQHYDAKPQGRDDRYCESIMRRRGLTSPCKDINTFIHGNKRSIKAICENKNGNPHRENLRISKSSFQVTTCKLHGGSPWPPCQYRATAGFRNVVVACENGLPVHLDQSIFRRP
# Experimental: as §1
# angiogenin [14] = biological target: T7, angiogenin; experiment: as above; remark: listed apart in the source
# Experimental: as §1, §2
Binder,Kd (Human Serum Albumin [1]),koff (Human Serum Albumin [1]),kon (Human Serum Albumin [1]),Kd (Human Serum Albumin [4]),also measured
"LVIAKAYAQYELAFYGVSDFYSDLIKKAKTVEGVEALKLHILAALP (designed binder, also called INS_01) [ADAPT variant Insulin_01]",3.9 nM,0.0014 s⁻¹,360000 M⁻¹ s⁻¹,3.9 nM,Kd [7]: 950 nM; koff [7]: 0.22 s⁻¹; kon [7]: 240000 M⁻¹ s⁻¹; Kd [8]: 950 nM
LRVAKSMAWHELWSYGVSDFYLRLIDKAKTVEGVEALKLHILAALP (designed binder) [ADAPT variant CRP_09],7.7 nM,0.0038 s⁻¹,490000 M⁻¹ s⁻¹,7.7 nM,Kd (C-reactive protein [11]): 1100 nM; koff (C-reactive protein [11]): 0.0013 s⁻¹; kon (C-reactive protein [11]): 1200 M⁻¹ s⁻¹; Kd (C-reactive protein [12]): 1100 nM
LHEAKDWADYELWSYGVSDFYRALIWKAKTVEGVEALKLHILAALP (designed binder) [ADAPT variant ANG_13],2.8 nM,6.8e-05 s⁻¹,25000 M⁻¹ s⁻¹,2.8 nM,Kd (angiogenin [13]): 0.028 nM; koff (angiogenin [13]): 2.9e-06 s⁻¹; kon (angiogenin [13]): 110000 M⁻¹ s⁻¹; Kd (angiogenin [14]): 0.028 nM
LYVAKDNADWELWQYGVSDFYRSLIWKAKTVEGVEALKLHILAALP (designed binder) [ADAPT variant ANG_16],1 nM,3e-05 s⁻¹,29000 M⁻¹ s⁻¹,1 nM,Kd (angiogenin [13]): 5.1 nM; koff (angiogenin [13]): 0.0005 s⁻¹; kon (angiogenin [13]): 99000 M⁻¹ s⁻¹
"LYWAKDYADYELWQYGVSDFYRSLIWKAKTVEGVEALKLHILAALP (designed binder, also called ANG_2) [ADAPT variant ANG_02]",2 nM,4.5e-05 s⁻¹,23000 M⁻¹ s⁻¹,2 nM,Kd (angiogenin [13]): 14 nM; koff (angiogenin [13]): 0.0007 s⁻¹; kon (angiogenin [13]): 52000 M⁻¹ s⁻¹
"LWAAKDDADWELWQYGVSDFYRALIWKAKTVEGVEALKLHILAALP (designed binder, also called ANG_6) [ADAPT variant ANG_06]",1.1 nM,2.6e-05 s⁻¹,24000 M⁻¹ s⁻¹,1.1 nM,Kd (angiogenin [13]): 4.9 nM; koff (angiogenin [13]): 0.00032 s⁻¹; kon (angiogenin [13]): 65000 M⁻¹ s⁻¹; Kd (angiogenin [14]): 4.9 nM
LSKAKAQAWHELYYYGVSDFYLSLIDKAKTVEGVEALKLHILAALP (designed binder) [ADAPT variant CRP_23],23 nM,0.007 s⁻¹,300000 M⁻¹ s⁻¹,23 nM,Kd (C-reactive protein [11]): 1900 nM; koff (C-reactive protein [11]): 0.0017 s⁻¹; kon (C-reactive protein [11]): 890 M⁻¹ s⁻¹; Kd (C-reactive protein [12]): 1900 nM
LKVAKIIAFHELWEYGVSDFYLSLIDKAKTVEGVEALKLHILAALP (designed binder) [ADAPT variant CRP_38],13 nM,0.0054 s⁻¹,410000 M⁻¹ s⁻¹,13 nM,Kd (C-reactive protein [11]): 52 nM; koff (C-reactive protein [11]): 0.0017 s⁻¹; kon (C-reactive protein [11]): 33000 M⁻¹ s⁻¹; Kd (C-reactive protein [12]): 52 nM
LHYAKIMAFHELWQYGVSDFYLQLIDKAKTVEGVEALKLHILAALP (designed binder) [ADAPT variant CRP_48],15 nM,0.0042 s⁻¹,280000 M⁻¹ s⁻¹,15 nM,Kd (C-reactive protein [11]): 62 nM; koff (C-reactive protein [11]): 0.0012 s⁻¹; kon (C-reactive protein [11]): 19000 M⁻¹ s⁻¹; Kd (C-reactive protein [12]): 62 nM

# Further lines, with some results ahead:
Kd (Human Serum Albumin [1]),koff (Human Serum Albumin [1]),kon (Human Serum Albumin [1]),Kd (Human Serum Albumin [4]),Binder,also measured
3.3 nM,0.0003 s⁻¹,92000 M⁻¹ s⁻¹,3.3 nM,LFRAKVWAVWELDQYGVSDFYDELIWKAKTVEGVEALKLHILAALP (designed binder) [ADAPT variant PSA_05],Kd [2]: 300 nM; koff [2]: 0.059 s⁻¹; kon [2]: 200000 M⁻¹ s⁻¹; Kd [3]: 300 nM
18 nM,0.00039 s⁻¹,21000 M⁻¹ s⁻¹,18 nM,"LIWAKAEAVQELFMYGVSDFYYDLIIKAKTVEGVEALKLHILAALP (designed binder, Single domain of about 6 kDa, made in E. coli, purified on HSA resin) [ADAPT variant TNFα_05]",Kd [5]: 2.5 nM; koff [5]: 0.0037 s⁻¹; kon [5]: 1.5e+06 M⁻¹ s⁻¹; Kd [6]: 2.5 nM
23 nM,0.00027 s⁻¹,12000 M⁻¹ s⁻¹,23 nM,LYHAKWMASLELAKYGVSDFYWNLISKAKTVEGVEALKLHILAALP (designed binder) [ADAPT variant REN_01],Kd (renin [9]): 76 nM; koff (renin [9]): 0.0024 s⁻¹; kon (renin [9]): 32000 M⁻¹ s⁻¹; Kd (renin [10]): 76 nM
5.5 nM,0.00064 s⁻¹,120000 M⁻¹ s⁻¹,5.5 nM,LMWAKAEAAIELVDYGVSDFYQYLISKAKTVEGVEALKLHILAALP (designed binder) [ADAPT variant REN_40],Kd (renin [9]): 410 nM; koff (renin [9]): 0.0035 s⁻¹; kon (renin [9]): 8700 M⁻¹ s⁻¹; Kd (renin [10]): 410 nM
3.1 nM,0.0014 s⁻¹,460000 M⁻¹ s⁻¹,3.1 nM,"LAVAKAYAKYELAFYGVSDFYNELILKAKTVEGVEALKLHILAALP (designed binder, also called INS_03) [ADAPT variant Insulin_03]",Kd [7]: 1300 nM; koff [7]: 0.22 s⁻¹; kon [7]: 180000 M⁻¹ s⁻¹; Kd [8]: 1300 nM
1.1 nM,0.0012 s⁻¹,1.1e+06 M⁻¹ s⁻¹,1.1 nM,LTVAKFWALTELQEYGVSDFYANLITKAKTVEGVEALKLHILAALP (designed binder) [ADAPT variant PSA_01],Kd [2]: 280 nM; koff [2]: 0.1 s⁻¹; kon [2]: 360000 M⁻¹ s⁻¹; Kd [3]: 280 nM
9.5 nM,0.00034 s⁻¹,36000 M⁻¹ s⁻¹,9.5 nM,LIWAKASAVRELHRYGVSDFYYELIVKAKTVEGVEALKLHILAALP (designed binder) [ADAPT variant TNFα_09],Kd [5]: 3.6 nM; koff [5]: 0.0032 s⁻¹; kon [5]: 890000 M⁻¹ s⁻¹; Kd [6]: 3.6 nM
